According to publication PMC9352680, “A comprehensive thermodynamic model for RNA binding by the Saccharomyces cerevisiae Pumilio protein PUF4”:

Molecular target: T1, PUF4 RNA-binding domain (Saccharomyces cerevisiae, UniProt P25339 537-888)
T1 sequence: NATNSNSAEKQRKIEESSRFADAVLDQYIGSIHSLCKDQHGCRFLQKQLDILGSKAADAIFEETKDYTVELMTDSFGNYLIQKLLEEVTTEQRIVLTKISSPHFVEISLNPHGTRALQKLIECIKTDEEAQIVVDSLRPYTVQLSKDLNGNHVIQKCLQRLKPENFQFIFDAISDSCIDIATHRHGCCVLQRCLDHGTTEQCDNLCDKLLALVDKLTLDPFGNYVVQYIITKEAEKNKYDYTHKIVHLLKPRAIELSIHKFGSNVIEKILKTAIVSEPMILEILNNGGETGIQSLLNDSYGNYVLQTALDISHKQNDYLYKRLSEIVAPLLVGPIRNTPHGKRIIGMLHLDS
Assay: Mg; RNA-MaP; 20 mM Na-HEPES pH 7.4, 30 mM KOAc, 0.75 mM MgCl2, 0.1% Tween-20, 5% glycerol, 0.1 mg/mL BSA, 2 mM DTT; 25 C; 0.0125-409.6 nM protein
Conditions: tags: N-His6-TEV cleaved; C-SNAP kept, Cy3B-labelled; label: tethered on chip by stalled RNA polymerase

**Q.** How did the Kd turn out when UCUCUUUGCAUUUUUAUCUCUU (ssRNA) [Ib_S1_P5E.1_K5.1_C5.1_H5.1_[T3C]_A5.1_[A7T]_F5.1_T5.1] was run?
**A.** 1540 nM

B1: Id_ii_S4_P5E.2_K5.1_C5.2_[C-2G]_H5.1_A5.1_F5.1_T5.2_[A12T] (ssRNA)
RNA: UUUGACAACUGAUCGUUCUUUCUGUUGUAUUAUUAUUUUCUUUCUCGAUCAGUUGUCUUU
**Q.** For B1, which Kd is on record?
**A.** 1.91 nM

B2: Id_ii_S4_P5E.2_K5.1_C5.2_[C-2A]_[T-1C]_H5.1_A5.1_F5.1_T5.2_[A12C] (ssRNA)
RNA: UUUGACAACUGAUCGUUCUUUCUACUGUAUUAUUAUCUUCUUUCUCGAUCAGUUGUCUUU
**Q.** Which Kd does the source give for B2 here?
**A.** 2.14 nM

B3: Id_ii_S4_P5E.3_K5.2_C5.2_[C-2G]_H5.2_A5.1_F5.1_T5.2_[T11C]_[A12G] (ssRNA)
RNA: UUUGACAACUGAUCGUUCUUUCUGUUAUAUUAUUACGUUCUUUCUCGAUCAGUUGUCUUU
**Q.** B3 was tested. Which Kd did it give?
**A.** 176 nM

B4: Id_ii_S4_P5E.2_K5.1_C5.2_[C-2T]_[T-1G]_H5.1_A5.1_F5.1_T5.2_[T11G]_[A12T] (ssRNA)
RNA: UUUGACAACUGAUCGUUCUUUCUUGUGUAUUAUUAGUUUCUUUCUCGAUCAGUUGUCUUU
**Q.** With B4 as the binder, how does the Kd read?
**A.** 1.51 nM

B5: Id_ii_S4_P5E.2_K5.1_C5.2_[C-2T]_[T-1C]_H5.1_A5.1_F5.1_T5.2_[T11A]_[A12G] (ssRNA)
RNA: UUUGACAACUGAUCGUUCUUUCUUCUGUAUUAUUAAGUUCUUUCUCGAUCAGUUGUCUUU
**Q.** How did the Kd turn out when B5 was run?
**A.** 34.5 nM

B6: Id_ii_S4_P5E.2_K5.1_C5.2_[C-2T]_H5.1_A5.1_F5.1_T5.2_[T11A]_[A12T] (ssRNA)
RNA: UUUGACAACUGAUCGUUCUUUCUUUUGUAUUAUUAAUUUCUUUCUCGAUCAGUUGUCUUU
**Q.** How did the Kd turn out when B6 was run?
**A.** 2.21 nM

B7: Id_ii_S4_P5E.2_K5.1_C5.2_[C-2T]_[T-1G]_H5.1_A5.1_F5.1_T5.2_[T11G]_[A12C] (ssRNA)
RNA: UUUGACAACUGAUCGUUCUUUCUUGUGUAUUAUUAGCUUCUUUCUCGAUCAGUUGUCUUU
**Q.** For B7, which Kd is on record?
**A.** 2.47 nM

B8: Id_ii_S4_P5E.2_K5.1_C5.2_[C-2T]_[T-1C]_H5.1_A5.1_F5.1_T5.2_[T11A]_[A12C] (ssRNA)
RNA: UUUGACAACUGAUCGUUCUUUCUUCUGUAUUAUUAACUUCUUUCUCGAUCAGUUGUCUUU
**Q.** For B8, which Kd is on record?
**A.** 2.92 nM

B9: Id_ii_S4_P5E.3_K5.2_C5.2_[C-2G]_H5.2_A5.1_F5.1_T5.2_[A12T] (ssRNA)
RNA: UUUGACAACUGAUCGUUCUUUCUGUUAUAUUAUUAUUUUCUUUCUCGAUCAGUUGUCUUU
**Q.** Which Kd does the source give for B9 here?
**A.** 28.2 nM

B10: Id_ii_S4_P5E.2_K5.1_C5.2_[C-2T]_[T-1A]_H5.1_A5.1_F5.1_T5.2_[T11A] (ssRNA)
RNA: UUUGACAACUGAUCGUUCUUUCUUAUGUAUUAUUAAAUUCUUUCUCGAUCAGUUGUCUUU
**Q.** B10 was tested. Which Kd did it give?
**A.** 10.7 nM

B11: Id_ii_S4_P5E.2_K5.1_C5.2_[T-1A]_H5.1_A5.1_F5.1_T5.2_[A12T] (ssRNA)
RNA: UUUGACAACUGAUCGUUCUUUCUCAUGUAUUAUUAUUUUCUUUCUCGAUCAGUUGUCUUU
**Q.** B11 was tested. Which Kd did it give?
**A.** 2.17 nM

B12: Id_ii_S4_P5E.3_K5.2_C5.2_[C-2G]_H5.2_A5.1_F5.1_T5.2_[T11G]_[A12T] (ssRNA)
RNA: UUUGACAACUGAUCGUUCUUUCUGUUAUAUUAUUAGUUUCUUUCUCGAUCAGUUGUCUUU
**Q.** B12 was tested. Which Kd did it give?
**A.** 51.7 nM

B13: Id_ii_S4_P5E.2_K5.1_C5.2_[T-1G]_H5.1_A5.1_F5.1_T5.2_[T11G]_[A12T] (ssRNA)
RNA: UUUGACAACUGAUCGUUCUUUCUCGUGUAUUAUUAGUUUCUUUCUCGAUCAGUUGUCUUU
**Q.** How did the Kd turn out when B13 was run?
**A.** 1.95 nM

B14: Id_ii_S4_P5E.2_K5.1_C5.2_[C-2T]_[T-1G]_H5.1_A5.1_F5.1_T5.2_[T11A]_[A12C] (ssRNA)
RNA: UUUGACAACUGAUCGUUCUUUCUUGUGUAUUAUUAACUUCUUUCUCGAUCAGUUGUCUUU
**Q.** For B14, which Kd is on record?
**A.** 3.09 nM

B15: Id_ii_S4_P5E.3_K5.2_C5.2_[C-2T]_[T-1G]_H5.2_A5.1_F5.1_T5.2_[T11A]_[A12C] (ssRNA)
RNA: UUUGACAACUGAUCGUUCUUUCUUGUAUAUUAUUAACUUCUUUCUCGAUCAGUUGUCUUU
**Q.** With B15 as the binder, how does the Kd read?
**A.** 0.672 nM

B16: Id_ii_S4_P5E.2_K5.1_C5.2_H5.1_A5.1_F5.1_T5.2_[T11A]_[A12C] (ssRNA)
RNA: UUUGACAACUGAUCGUUCUUUCUCUUGUAUUAUUAACUUCUUUCUCGAUCAGUUGUCUUU
**Q.** Which Kd does the source give for B16 here?
**A.** 3 nM

B17: Id_ii_S4_P5E.3_K5.2_C5.2_[C-2T]_[T-1G]_H5.2_A5.1_F5.1_T5.2_[T11G]_[A12C] (ssRNA)
RNA: UUUGACAACUGAUCGUUCUUUCUUGUAUAUUAUUAGCUUCUUUCUCGAUCAGUUGUCUUU
**Q.** B17 was tested. Which Kd did it give?
**A.** 1.12 nM

B18: Id_ii_S4_P5E.2_K5.1_C5.2_[T-1A]_H5.1_A5.1_F5.1_T5.2_[T11A]_[A12T] (ssRNA)
RNA: UUUGACAACUGAUCGUUCUUUCUCAUGUAUUAUUAAUUUCUUUCUCGAUCAGUUGUCUUU
**Q.** For B18, which Kd is on record?
**A.** 3.49 nM

B19: Id_ii_S4_P5E.3_K5.2_C5.2_[C-2T]_[T-1G]_H5.2_A5.1_F5.1_T5.2_[A12T] (ssRNA)
RNA: UUUGACAACUGAUCGUUCUUUCUUGUAUAUUAUUAUUUUCUUUCUCGAUCAGUUGUCUUU
**Q.** For B19, which Kd is on record?
**A.** 0.445 nM

B20: Id_ii_S4_P5E.3_K5.2_C5.2_[C-2T]_[T-1C]_H5.2_A5.1_F5.1_T5.2_[T11C]_[A12G] (ssRNA)
RNA: UUUGACAACUGAUCGUUCUUUCUUCUAUAUUAUUACGUUCUUUCUCGAUCAGUUGUCUUU
**Q.** Which Kd does the source give for B20 here?
**A.** 538 nM

B21: Id_ii_S4_P5E.2_K5.1_C5.2_[C-2T]_[T-1A]_H5.1_A5.1_F5.1_T5.2_[T11A]_[A12C] (ssRNA)
RNA: UUUGACAACUGAUCGUUCUUUCUUAUGUAUUAUUAACUUCUUUCUCGAUCAGUUGUCUUU
**Q.** Which Kd does the source give for B21 here?
**A.** 9.12 nM

B22: Id_ii_S4_P5E.2_K5.1_C5.2_[C-2T]_H5.1_A5.1_F5.1_T5.2_[A12C] (ssRNA)
RNA: UUUGACAACUGAUCGUUCUUUCUUUUGUAUUAUUAUCUUCUUUCUCGAUCAGUUGUCUUU
**Q.** For B22, which Kd is on record?
**A.** 2.29 nM

B23: Id_ii_S4_P5E.2_K5.1_C5.2_[C-2A]_H5.1_A5.1_F5.1_T5.2_[A12G] (ssRNA)
RNA: UUUGACAACUGAUCGUUCUUUCUAUUGUAUUAUUAUGUUCUUUCUCGAUCAGUUGUCUUU
**Q.** For B23, which Kd is on record?
**A.** 4.86 nM

B24: Id_ii_S4_P5E.3_K5.2_C5.2_[C-2T]_[T-1G]_H5.2_A5.1_F5.1_T5.2_[T11G]_[A12T] (ssRNA)
RNA: UUUGACAACUGAUCGUUCUUUCUUGUAUAUUAUUAGUUUCUUUCUCGAUCAGUUGUCUUU
**Q.** For B24, which Kd is on record?
**A.** 1 nM

B25: Id_ii_S4_P5E.2_K5.1_C5.2_[T-1G]_H5.1_A5.1_F5.1_T5.2_[T11G]_[A12C] (ssRNA)
RNA: UUUGACAACUGAUCGUUCUUUCUCGUGUAUUAUUAGCUUCUUUCUCGAUCAGUUGUCUUU
**Q.** How did the Kd turn out when B25 was run?
**A.** 1.94 nM

B26: Id_ii_S4_P5E.2_K5.1_C5.2_[C-2A]_H5.1_A5.1_F5.1_T5.2_[T11A]_[A12C] (ssRNA)
RNA: UUUGACAACUGAUCGUUCUUUCUAUUGUAUUAUUAACUUCUUUCUCGAUCAGUUGUCUUU
**Q.** How did the Kd turn out when B26 was run?
**A.** 5.14 nM

B27: Id_ii_S4_P5E.2_K5.1_C5.2_[T-1A]_H5.1_A5.1_F5.1_T5.2_[T11A] (ssRNA)
RNA: UUUGACAACUGAUCGUUCUUUCUCAUGUAUUAUUAAAUUCUUUCUCGAUCAGUUGUCUUU
**Q.** With B27 as the binder, how does the Kd read?
**A.** 8.86 nM

B28: Id_ii_S4_P5E.2_K5.1_C5.2_[C-2T]_[T-1G]_H5.1_A5.1_F5.1_T5.2_[T11A]_[A12T] (ssRNA)
RNA: UUUGACAACUGAUCGUUCUUUCUUGUGUAUUAUUAAUUUCUUUCUCGAUCAGUUGUCUUU
**Q.** How did the Kd turn out when B28 was run?
**A.** 1.56 nM

B29: Id_ii_S4_P5E.2_K5.1_C5.2_[T-1C]_H5.1_A5.1_F5.1_T5.2_[A12T] (ssRNA)
RNA: UUUGACAACUGAUCGUUCUUUCUCCUGUAUUAUUAUUUUCUUUCUCGAUCAGUUGUCUUU
**Q.** How did the Kd turn out when B29 was run?
**A.** 1.38 nM

B30: Id_ii_S4_P5E.2_K5.1_C5.2_[C-2T]_[T-1A]_H5.1_A5.1_F5.1_T5.2_[T11G]_[A12T] (ssRNA)
RNA: UUUGACAACUGAUCGUUCUUUCUUAUGUAUUAUUAGUUUCUUUCUCGAUCAGUUGUCUUU
**Q.** For B30, which Kd is on record?
**A.** 4.76 nM

B31: Id_ii_S4_P5E.2_K5.1_C5.2_H5.1_A5.1_F5.1_T5.2_[A12C] (ssRNA)
RNA: UUUGACAACUGAUCGUUCUUUCUCUUGUAUUAUUAUCUUCUUUCUCGAUCAGUUGUCUUU
**Q.** Which Kd does the source give for B31 here?
**A.** 1.53 nM

B32: Id_ii_S4_P5E.2_K5.1_C5.2_[C-2A]_[T-1C]_H5.1_A5.1_F5.1_T5.2_[T11A]_[A12T] (ssRNA)
RNA: UUUGACAACUGAUCGUUCUUUCUACUGUAUUAUUAAUUUCUUUCUCGAUCAGUUGUCUUU
**Q.** B32 was tested. Which Kd did it give?
**A.** 2.62 nM

B33: Id_ii_S4_P5E.2_K5.1_C5.2_[C-2T]_[T-1G]_H5.1_A5.1_F5.1_T5.2_[A12C] (ssRNA)
RNA: UUUGACAACUGAUCGUUCUUUCUUGUGUAUUAUUAUCUUCUUUCUCGAUCAGUUGUCUUU
**Q.** How did the Kd turn out when B33 was run?
**A.** 1.56 nM

**Q.** UCUCUUUGCAUCAUUAUCUCUU (ssRNA) [Ib_S1_P5E.1_K5.1_C5.1_H5.1_[T3C]_A5.1_[T6C]_F5.1_T5.1] was tested. Which Kd did it give?
**A.** 1980 nM

**Q.** With UCUCUUUGCAUUGUUAUCUCUU (ssRNA) [Ib_S1_P5E.1_K5.1_C5.1_H5.1_[T3C]_A5.1_[A7G]_F5.1_T5.1] as the binder, how does the Kd read?
**A.** 2260 nM

**Q.** With UCUCUUUGCAAUAUUAUCUCUU (ssRNA) [Ib_S1_P5E.1_K5.1_C5.1_H5.1_[T3C]_A5.1_[T5A]_F5.1_T5.1] as the binder, how does the Kd read?
**A.** 1370 nM
